# In patent publication US20220235138A1, “CAR-T CELLS TARGETING IL-1RAP AND THEIR USE IN ACUTE MYELOID LEUKEMIA (AML)” (ETABLISSEMENT FRANCAIS DU SANG, priority 2019, published 2022):
# Where “and” joins values, the source holds several entries; their conditions need not be identical. Identical values can stand only once.
# B1: #A3C3: mouse anti-hIL-1RAP monoclonal antibody generated by standard hybridoma technique; VH SEQ ID No 2, VL SEQ ID No 4 (antibody, V domains shown)
# VH: MGWSCIILFLVATATGVNSQVQLQQPGAELMMPGASVKVSCEASGYTFTDSWMHWVKQRPGQGLEWIGAIDPSDSYTTYNQKFTGKATLSVDESSNTAYMQLSSLTSEDSAVYYCARYYSGSNYISPFPYWGQGTLVTVSA
# VL: MESQIQVFVFVFLWLSGVDGDIVMTQSHKFMSTSVGDRVTITCKASLDVSTAVAWYQQKPGQSPKLLIYSASYRYTGVPDRFTGSGSGTDFTFTISSVQAEDLAVYYCQQHYSPPFTFGSGTNLEIK
# modifications: Amino acid sequence of chain H (VH) of murine scFv anti-IL-1RAP; Amino acid sequence of chain K (VL) of murine scFv anti-IL-1RAP
# What was measured:
# IL-1RAP [1] = assay: Hybridoma screening by FACS against IL-1RAP-positive and -negative cell lines; format: binding, human; details: compared among the 5 subclones
# Excerpt: Briefly, BALB/c mice (5 weeks, Charles River) were immunized either by foot pad (n=3) or intraperitoneally (n=5) with a recombinant fusion protein consisting of the extra cellular part of IL-1RAP (NM_002182.2, NCBI) and the Fc-part of human IgG1 (R&D Systems, Lille, France). Lymph nodes or spleens cells and blood samples were harvested and cells were fused with the mouse myeloma cell line, then screened by FACS analysis Becton Dickinson)(, against IL-1RAP-positive (KU812) and -negative (Raji, KG1) cell lines.
# Screening of hybridoma allowed to select 5 monoclonal antibodies subclones that discriminate IL-1RAP positive (KU812 or KG-1 respectively AML or Phi^+p^210 CML) from negative cell lines (Tom-1, NALM-20, Jurkat or Raji, respectively Phi+^p190 B-ALL, Phi^−B-ALL, T-ALL or Burkitt's lymphoma).
# Molecular characterization was performed by Sanger sequencing of cloned PCR products amplification obtained with degenerated primers specific of the FR1 and constant regions of the heavy and light chains according to the protocol of Wang. Z. et al (J. Immunol. Methods, 2000; 233, pages 167-77). […] The monoclonal antibody subclone (#E3C3) was chosen, since it gave the highest relative fluorescence intensity (RFI) by cytometry.
# IL-1RAP [2] = assay: Immunostaining of FDA standard frozen normal tissue array; format: binding, human; set-up: key to Staining intensity (0 to 3+): negative (0); weak staining (1+); moderate staining (2+); strong staining (3+); details: for Staining intensity (0 to 3+): replicates
# Excerpt: FIG. 13: (A) Tissue microarray. Representative #A3C3 staining of an US Food and Drug Administration standard frozen tissue array, including 90 tissue cores (30 organs) of 3 individual donors per organ (US Biomax, Rockville, Md., USA). Immunostaining was detected using the UltraView Universal DAB Detection Kit (Ventana, USA). Images were acquired and analyzed with NDP.view 2.0 software. […] (Scale bars, 100 μm.) High IL-1RAP (KU812) or negative (Raji)-expressing cell lines were respectively used as positive or negative controls. (B) IL-1RAP R&D (red) or #A3C3 (blue) staining of HMEC-1 dermal endothelial cell line. Isotype IgG1 (gray) is depicted as overlay. RFI is provided for both staining.
# In order to study specific or non-target tissue binding, FDA standard frozen tissue arrays, including 90 tissue cores (30 organs) of 3 individual donors per organ (US Biomax, Rockville, United States) were incubated as previously described. Immunostaining was detected using UltraView Universal DAB Detection Kit (Ventana, USA). Images were acquired and analyzed with NDP.view 2 software. High IL-1RAP (KU812) or negative (Raji) expressing cell lines were respectively used as positive or negative controls. The staining intensity was graduated as follows: negative (0), weak staining (1+), moderate staining (2+), or strong staining (3+). […]
# Chain of IL-1RAP (Q9NPH3 21-570): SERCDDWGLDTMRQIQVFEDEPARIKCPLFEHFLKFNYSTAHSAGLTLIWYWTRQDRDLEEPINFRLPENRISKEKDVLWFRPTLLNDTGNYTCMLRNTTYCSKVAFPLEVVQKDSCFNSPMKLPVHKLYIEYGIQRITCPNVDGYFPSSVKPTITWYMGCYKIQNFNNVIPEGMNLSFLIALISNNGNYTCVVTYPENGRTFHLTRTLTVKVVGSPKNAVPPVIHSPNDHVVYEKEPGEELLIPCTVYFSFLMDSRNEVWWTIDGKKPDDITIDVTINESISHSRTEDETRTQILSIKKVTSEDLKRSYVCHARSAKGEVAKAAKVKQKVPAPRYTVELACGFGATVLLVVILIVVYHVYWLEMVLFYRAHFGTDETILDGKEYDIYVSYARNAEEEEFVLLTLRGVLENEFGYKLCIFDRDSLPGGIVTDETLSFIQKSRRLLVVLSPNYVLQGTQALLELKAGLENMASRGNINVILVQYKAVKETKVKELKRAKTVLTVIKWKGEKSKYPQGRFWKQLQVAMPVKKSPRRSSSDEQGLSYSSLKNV
molecule,measurement,setting,value
B1,relative fluorescence intensity (RFI) by cytometry,IL-1RAP [1],highest
same,Staining intensity (0 to 3+),IL-1RAP [2]; Adrenal gland,0
same,Staining intensity (0 to 3+),IL-1RAP [2]; Cerebellum tissue,0
same,Comments: stained epithelial cells,IL-1RAP [2]; Colon,Epithelial cells (~30%);
same,Comments: stained inflammatory elements,IL-1RAP [2]; Colon,(100%)
same,Staining intensity (0 to 3+),IL-1RAP [2]; Colon,3+
same,Staining intensity (0 to 3+),IL-1RAP [2]; Esophagus,0
same,Staining intensity (0 to 3+),IL-1RAP [2]; Heart,0
same,Staining intensity (0 to 3+),IL-1RAP [2]; Kidney,0
same,Staining intensity (0 to 3+),IL-1RAP [2]; Liver,0
same,Comments: stained elements,IL-1RAP [2]; Lung,Few inflammatory elements
same,Staining intensity (0 to 3+),IL-1RAP [2]; Lung,2+
same,Comments: stained endothelial cells,IL-1RAP [2]; Lymph node,~30% of endothelial cells
same,Staining intensity (0 to 3+),IL-1RAP [2]; Lymph node,2+ and 1+
same,Staining intensity (0 to 3+),IL-1RAP [2]; Ovary,0
same,Staining intensity (0 to 3+),IL-1RAP [2]; Pancreas,1+
same,Staining intensity (0 to 3+),IL-1RAP [2]; Peripheral nerve,0
same,Staining intensity (0 to 3+),IL-1RAP [2]; Pituitary gland,0
same,Comments: stained cytotrophoblast cells,IL-1RAP [2]; Placenta,Cytotrophoblast cells (~10%)
same,Staining intensity (0 to 3+),IL-1RAP [2]; Placenta,0
same,Comments: stained endothelial cells,IL-1RAP [2]; Prostate,~10% of endothelial cells
same,Staining intensity (0 to 3+),IL-1RAP [2]; Prostate,1+ (2×) and 0 (4×)
same,Staining intensity (0 to 3+),IL-1RAP [2]; Salivary gland,0
same,Comments: stained endothelial cells,IL-1RAP [2]; Skeletal muscle 1,~10% of endothelial cells
same,Staining intensity (0 to 3+),"IL-1RAP [2]; Skeletal muscle, first listing",1+ and 0 (2×)
same,Staining intensity (0 to 3+),"IL-1RAP [2]; Skeletal muscle, second listing",0
same,Staining intensity (0 to 3+),IL-1RAP [2]; Skin,0
same,Comments: stained epithelial cells,IL-1RAP [2]; Small intestine,Epithelial cells (~30%);
same,Comments: stained inflammatory elements,IL-1RAP [2]; Small intestine,(100%)
same,Staining intensity (0 to 3+),IL-1RAP [2]; Small intestine,2+ and 0 and 1+
same,Staining intensity (0 to 3+),IL-1RAP [2]; Smooth muscle,0
same,Staining intensity (0 to 3+),IL-1RAP [2]; Spinal cord,0
same,Comments: stained elements,IL-1RAP [2]; Spleen,Necrotic elements
same,Staining intensity (0 to 3+),IL-1RAP [2]; Spleen,3+
same,Comments: stained epithelial cells,IL-1RAP [2]; Stomach 1,cells <10%
same,Comments: stained gastric mucosa cells,IL-1RAP [2]; Stomach 1,(~10%); few epithelial
same,Staining intensity (0 to 3+),IL-1RAP [2]; Stomach,1+ and 0 (2×)
same,Staining intensity (0 to 3+),IL-1RAP [2]; Testis,0
same,Staining intensity (0 to 3+),IL-1RAP [2]; Thyroid gland,0
same,Staining intensity (0 to 3+),IL-1RAP [2]; Ureter,0
same,Staining intensity (0 to 3+),IL-1RAP [2]; Uterine cervix,0
